± gives the standard deviation of the averaged measurements.
Test system: ATP
Experiment: switch fluorescence ratio, 500 uM ATP over buffer (Cy3 cluster intensity, sum of 5 cycles each) (fold (ratio)); higher = stronger signal-on switching upon ATP binding; sequences stand for … in TCGTCGGCAGCGTCAGATGTGTATAAGAGACAGTTTTTTTTTTTTTTTTTTTTTTTTT…TC
Conditions: aptamer strand: ATP DNA aptamer (quencher-CACCTGGGGGAGTATTGCGGAGGAAGG + anchor), 100 nM annealed; ATP concentration: 500 uM
In short: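 Values give the fluorescence ratio for each switch-domain sequence, averaged from per-cluster ratios of summed target-cycle to summed buffer-cycle Cy3 intensity. The Cy3-labelled switching-strand clusters sat on a modified Illumina MiSeq flow-cell, were annealed to 100 nM quencher-labelled ATP aptamer, and were imaged in selection buffer, then after 15 min with 500 uM ATP at 22 °C. Five cycles ran with NaOH stripping and re-annealing between them, and clusters outside 100-1000 RFU were excluded.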
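Also: ATP exposure 15 min at 22 °C before imaging.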

Sequence	switch fluorescence ratio
GGGGGGCATC	1.01 ± 0.024
GGGGGGCGGT	0.989 ± 0.015
GGGGGGCTTA	0.999 ± 0.018
GGGGGGGAT	1.02 ± 0.025
GGGGGGGCCG	0.993 ± 0.048
GGGGGGGCGG	1 ± 0.024
GGGGGGGGAG	1.01 ± 0.03
GGGGGGGGCC	0.998 ± 0.053
GGGGGGGTAT	1.01 ± 0.036
GGGGGGGTGA	1.01 ± 0.038
GGGGGGGTT	1 ± 0.025
GGGGGGGTTT	1.01 ± 0.074
GGGGGGTAAG	1 ± 0.021
GGGGGGTCGC	0.99 ± 0.041
GGGGGGTGG	0.9912 ± 0.0055
GGGGGGTGTC	1.01 ± 0.038
GGGGGTAAAA	1.01 ± 0.029
GGGGGTAAGT	1.01 ± 0.02
GGGGGTAATA	0.999 ± 0.021
GGGGGTAATG	0.974 ± 0.035
GGGGGTATAC	1.28 ± 0.11
GGGGGTCATC	0.971 ± 0.011
GGGGGTCCAG	0.997 ± 0.022

Sequence	switch fluorescence ratio
GGGGGTCCCT	1.01 ± 0.015
GGGGGTCCGC	1.022 ± 0.0071
GGGGGTCTGT	0.972 ± 0.013
GGGGGTGACG	0.995 ± 0.11
GGGGGTGGGC	1.03 ± 0.035
GGGGGTGTTT	0.998 ± 0.037
GGGGGTTACA	1.005 ± 0.005
GGGGGTTAGG	1.01 ± 0.037
GGGGGTTAGT	1.01 ± 0.014
GGGGGTTCCC	0.9833 ± 0.0017
GGGGGTTCCT	1 ± 0.032
GGGGGTTCGT	0.98 ± 0.036
GGGGGTTTAG	1 ± 0.028
GGGGGTTTGA	1 ± 0.022
GGGGGTTTGG	0.991 ± 0.03
GGGGTAAAAG	1.08 ± 0.2
GGGGTAAACT	1.01 ± 0.034
GGGGTAAAGC	1 ± 0.018
GGGGTAACAG	1.01 ± 0.044
GGGGTAAGTG	0.987 ± 0.04
GGGGTACAGT	0.9946 ± 0.0091
GGGGTACGCT	0.99523 ± 0.00067
GGGGTACTGG	1.01 ± 0.016

Sequence	switch fluorescence ratio
GGGGTACTTT	0.991 ± 0.026
GGGGTAGCCC	0.9977 ± 0.004
GGGGTAGGAG	1.03 ± 0.093
GGGGTAGTAG	0.979 ± 0.013
GGGGTAGTTC	1.01 ± 0.028
GGGGTATTAT	1 ± 0.028
GGGGTATTTT	0.997 ± 0.023
GGGGTCAGTC	0.9933 ± 0.0099
GGGGTCAGTG	0.998 ± 0.054
GGGGTCCGTG	0.993 ± 0.067
GGGGTCCTAG	0.9959 ± 0.0065
GGGGTCCTGA	1.01 ± 0.062
GGGGTCGGTA	0.9893 ± 0.0032
GGGGTCTGCG	1.03 ± 0.059
GGGGTGAATC	1.03 ± 0.045
GGGGTGAGGA	0.981 ± 0.037
GGGGTGATAT	1.58 ± 0.78
GGGGTGATCG	0.9842 ± 0.0077
GGGGTGCATG	0.997 ± 0.054
GGGGTGCCCG	0.948 ± 0.018
GGGGTGCGGT	0.998 ± 0.017
GGGGTGGAAA	0.979 ± 0.018
GGGGTGGCTA	1.02 ± 0.019

Sequence	switch fluorescence ratio
GGGGTGGTGT	1.03 ± 0.027
GGGGTGTACA	0.969 ± 0.027
GGGGTGTGAA	1.03 ± 0.059
GGGGTTAAAC	1.04 ± 0.034
GGGGTTAGAG	0.991 ± 0.033
GGGGTTATCA	0.99 ± 0.014
GGGGTTATTG	0.986 ± 0.038
GGGGTTCGTG	0.975 ± 0.041
GGGGTTGTGC	0.971 ± 0.035
GGGGTTTCGG	1.02 ± 0.087
GGGGTTTCTG	0.986 ± 0.03
GGGGTTTGG	1.004 ± 0.0067
GGGGTTTTCG	1.01 ± 0.029
GGGGTTTTG	0.953 ± 0.0088
GGGTAAATCG	0.981 ± 0.068
GGGTAAGCTT	0.996 ± 0.016
GGGTAAGGGC	1.01 ± 0.031
GGGTAATGAG	1 ± 0.022
GGGTAATGTG	0.982 ± 0.029
GGGTAATTAT	1.01 ± 0.036
GGGTACAGTT	1.01 ± 0.018
GGGTACGTGG	1.005 ± 0.009
GGGTACGTGT	0.989 ± 0.029

Sequence	switch fluorescence ratio
GGGTACTCGC	1.03 ± 0.065
GGGTAGAAGT	0.988 ± 0.023
GGGTAGATGG	0.9704 ± 0.0062
GGGTAGCCGG	1 ± 0.0042
GGGTAGCTAG	1.04 ± 0.022
GGGTAGCTCT	1.06 ± 0.076
GGGTAGGCGT	0.999 ± 0.062
GGGTAGGGAC	1.01 ± 0.026
GGGTAGGGTA	0.9864 ± 0.0082
GGGTAGGGTT	0.9832 ± 0.0077
GGGTAGTTCA	1.009 ± 0.0069
GGGTAGTTGG	0.998 ± 0.082
GGGTATAATA	1.01 ± 0.014
GGGTATAGGG	1.01 ± 0.037
GGGTATATAG	1.02 ± 0.036
GGGTATCAG	0.955 ± 0.03
GGGTATCTCG	0.9938 ± 0.0063
GGGTATGCAT	0.973 ± 0.011
GGGTATGGGG	1.01 ± 0.031
GGGTATGTCC	0.989 ± 0.026
GGGTATTAGC	0.982 ± 0.053
GGGTATTGGA	0.9828 ± 0.0047
GGGTATTGTT	0.995 ± 0.024

Sequence	switch fluorescence ratio
GGGTATTTGG	0.987 ± 0.042
GGGTCAAGGA	0.995 ± 0.019
GGGTCAATAT	1.13 ± 0.032
GGGTCAGGGC	1.06 ± 0.062
GGGTCAGGGG	1.09 ± 0.077
GGGTCAGTCC	0.978 ± 0.019
GGGTCAGTGG	0.976 ± 0.035
GGGTCCATCT	1 ± 0.013
GGGTCCGAGA	1.31 ± 0.4
GGGTCGCAGC	0.998 ± 0.015
GGGTCGTGCT	1.03 ± 0.022
GGGTCTAGAG	1.0295 ± 0.00078
GGGTCTAGCG	1.01 ± 0.0065
GGGTCTATCG	0.989 ± 0.034
GGGTCTGGGT	0.984 ± 0.026
GGGTGAAATA	1.02 ± 0.019
GGGTGAAGAT	1.011 ± 0.0088
GGGTGACAGG	0.978 ± 0.017
GGGTGAGCTT	1.01 ± 0.029
GGGTGATTGG	0.993 ± 0.018
GGGTGCACGG	1.01 ± 0.021
GGGTGCCCTA	0.986 ± 0.051
GGGTGCGCTG	1.03 ± 0.014

Sequence	switch fluorescence ratio
GGGTGGAAGT	0.981 ± 0.023
GGGTGGATGG	0.985 ± 0.024
GGGTGGCCGT	0.961 ± 0.029
GGGTGGGAAT	1.01 ± 0.043
GGGTGGGACG	1.23 ± 0.16
GGGTGGGGAC	0.975 ± 0.015
GGGTGGGTTG	1 ± 0.039
GGGTGGGTTT	1 ± 0.018
GGGTGGTGGC	0.964 ± 0.082
GGGTGGTGTT	1.01 ± 0.021
GGGTGGTTGC	0.99544 ± 4.2e-05
GGGTGTACTG	1 ± 0.0089
GGGTGTAGAG	1.05 ± 0.078
GGGTGTGCCA	1 ± 0.027
GGGTGTGTTT	0.985 ± 0.018
GGGTGTTAGC	1.02 ± 0.046
GGGTGTTCTT	0.997 ± 0.034
GGGTGTTGAC	0.993 ± 0.018
GGGTTAACCT	1.06 ± 0.075

— the supplement of paper PMC10126150
